Laboratory results taken from patent US20200384107A1 (PRIMATOPE THERAPEUTICS, published 2020).

T1: rhesus CD40-MBP fusion (rhesus macaque (M. mulatta), UniProt P25942 21-120 (human entry))
T1 construct: also called CD40-MBP fusions of rhesus
T1 chain: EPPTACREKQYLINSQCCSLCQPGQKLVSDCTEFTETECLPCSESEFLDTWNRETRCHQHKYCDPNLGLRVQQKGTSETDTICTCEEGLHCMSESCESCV


Experiments:
[1] = molecular target: T2, CD40 (as in Table 2, species and form not stated); assay: binding kinetics, method not stated
T2 construct: also called CD40 Receptor

[2] = molecular target: T3, human CD40, recombinant / purified (human, UniProt P25942 21-193, limits assumed); assay: kinetics on human CD40; Biacore by paragraph 276, Forte Bio with biotinylated CD40 on streptavidin biosensors by paragraph 270
T3 construct: also called hCD40; purified CD40

[3] = molecular target: T4, human CD40 on human blood B cells (CD20+ cells of PBMCs) (human, UniProt P25942 21-277); assay: flow cytometry blocking assay: human B cells incubated with 2C10, then with histidine-tagged soluble CD154, read by histidine staining
T4 construct: whole, on cells; also called human CD20+ B cells; human B cells
Protocol: To assess the ability of 2C10 to bind to both rhesus and human CD40, recombinantly expressed human or rhesus CD40 were adsorbed to ELISA plates and reacted with varying concentrations of 2C10. Binding of 2C10 to CD40 was detected using goat anti-mouse IgG-HRP in an ELISA. […] To confirm the ability of 2C10 to block binding of its cognate ligand, CD154, rhesus and human B cells were incubated with escalating concentrations of 2C10 or an isotype control and then incubated with histidine-tagged soluble CD154 (R&D Systems, Minneapolis, Minn.) and analyzed for histidine expression.

[4] = molecular target: T3, human CD40, recombinant / purified; assay: kinetics on human CD40, compared with murine 2C10
[5] = molecular target: T3, human CD40, recombinant / purified; assay: kinetics on human CD40, compared with parent 2C10
[6] = molecular target: T3, human CD40, recombinant / purified; assay: CD40 binding affinity, method not given; reference murine 2C10
human CD40-MBP fusion = molecular target: T5, human CD40-MBP fusion (human, UniProt P25942 21-193; P0AEX9 27-392 = MBP, limits assumed); assay: BIACore 3000, h2C10 amine-coupled to a CM5 chip, human CD40-MBP injected at 0-160 nM
T5 construct: also called CD40-MBP fusions of human
Protocol: (§1) Humanized 2C10 antibodies (h2C10) were immobilized to the surface of CM5 chip by amine coupling. Different concentrations of CD40-MBP fusions of human, rhesus, and baboon were analyzed for affinity on a BIACore 3000. The binding affinity was calculated with BIAevaluation software version 4.1.1.

baboon CD40-MBP fusion = molecular target: T6, baboon CD40-MBP fusion (baboon, UniProt P0AEX9 27-392 = MBP); assay: BIACore 3000, h2C10 amine-coupled to a CM5 chip, baboon CD40-MBP injected at 0-160 nM
T6 construct: also called CD40-MBP fusions of baboon; not shown: baboon CD40 part of the MBP fusion
Protocol: as §1

rhesus CD40-MBP fusion = molecular target: T1, rhesus CD40-MBP fusion; assay: BIACore 3000, h2C10 amine-coupled to a CM5 chip, rhesus CD40-MBP injected at 0-160 nM
Protocol: as §1

Binder	Kd [1] [nM]	koff [1] [s⁻¹]	kon [1] [M⁻¹ s⁻¹]	Kd [2] [nM]	koff [2] [s⁻¹]	kon [2] [M⁻¹ s⁻¹]	IC50 (read off the curve) [3] [µg/mL]	fold of affinity against murine 2C10 [4] [fold]	fold reduction in affinity relative to the parent 2C10 mAb [5] [fold]	fold of the affinity of murine 2C10 [6] [fold]	Kd (human CD40-MBP fusion) [nM]	Kd (baboon CD40-MBP fusion) [nM]	Kd (rhesus CD40-MBP fusion) [nM]
2C10 (murine anti-CD40 monoclonal antibody) (antibody, V domains shown, In some assays it was conjugated to a fluorochrome (APC); also called murine 2C10; parent 2C10 mAb) VH: QVQLQQSGAELAKPGASVKMSCKASGYTFTNYWMHWVKQRPGQGLEWIGYINPSNDYTKYNQKFKDKATLTADKSSNTAYMQLGSLTSEDSAVYYCARQGFPYWGQGTLVTVSA VL: QIVLTQSPAIMSASPGEKVTMTCSASSSVSYMHWYHQRSGTSPKRWIYDTSKLASGVPARFSGSGSGTSYSLTISSMEAEDAATYYCHQLSSDPFTFGSGTKLEIK	0.273	1.86e-06	2730	0.222	6.01e-05	148000	~1	–	–	–	–	–	–
humanized 2C10, clone 2.189.2 (2C10_h3 + 2C10_l2) (antibody, V domains shown, also called h2C10; mAb 2.189.2) VH: QVQLVQSGAEVKKPGASVKVSCKASGYTFTNYWMHWVRQAPGQRLEWIGYINPSNDYTKYNQKFKDRATLTADKSANTAYMELSSLRSEDTAVYYCARQGFPYWGQGTLVTVSS VL: EIVLTQSPATLSLSPGERATLSCSASSSVSYMHWYQQKPGQAPRRWIYDTSKLASGVPARFSGSGSGTDYTLTISSLEPEDFAVYYCHQLSSDPFTFGGGTKVEIK	–	–	–	0.39	0.000128	179000	–	≤ 2	~2	≤ 2	4.72	2.57	2.61
